Measurements taken from the domain aggregation screens of Martell et al. (2025).

Experiment: soluble fraction after stress (log2 fold change); higher = more stays soluble; pooled small domains, quantitative proteomics
Settings: stress: 75 degC
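Also: 20 min heating vs room temperature control held 20 min.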

Row | Sequence | soluble fraction (log2)
1 | HMQISDSSLIAKTVATVILENPEAVSDYLGGKHSVVRFMVGQIMKKTQGKANPKMATEMLETALNDL | -1.88
2 | HMQISDTTELSTLITKVLSEQSDALVDFKNPKKQKQVIGYLTGQVLRASQGKANPGLVRSLLEEQLSALDS | 0.0724
3 | HMQISMQNIASVKIDDLSDEQIQEFSTKYTAAGYSFPDVENVAKQKGMPSSEIEKLRQRVLTAQNTQEK | 0.283
4 | HMQISSSEVLEKVVDEILSANPKSIEDYKNGKLQAAGFLMGQVMKATKGQANPAVAKELIEAKLKD | 0.461
5 | HMQISYDVPNLIGKSYEEVMTDPSILGEHFTVVLGETKTDEDTDAGVILHQDPAADSKVQDEVTPITVTVS | 0.374
6 | HMQITDTEAIATTLDEIIAANPKEWERLKAGQEQLVKFFVGQVMRVTKGRANPQVVNDLLKERL | -0.346
7 | HMQITNEGQIKLVISEVLNENQEQKKQYLSGKEQVLGYLIGKVMQKTKGKANPKLVNDLMIKELS | -0.135
8 | HMQITSTDEIEKMIDELIAANPEQTKQYQNGNHKVAGWFVGQMMKASKGKANPQMVNNLLQKKL | 0.278
9 | HMQITTVSPKNYAEAELIGQRFREGNPVVMDLSKLDSDLGQRLVDFASGLVFALNGTVERIAKKVFLLSP | -1.37
10 | HMQIVHKHLQLQPDQGALRAALYSHKAVVAEQVNEQGAINLEIKLAESDFLRLLKSSGLKLQDLVSLS | -1.35
11 | HMQKAQEYILVDIKGEVQTPGVYKLPVNSRVIDAIEASGGLTKKAVTTYINLSKTLKDENVIIINKKSEL | -0.59
12 | HMQKITPDNWTYIRSLIRQKWSPDQIDQWLKKHPDVGFTVSRETIYQYVKEDRQKDGDLYLSLRRAGKSY | -2.18
13 | HMQKLKINKYKDPKGEIRYYIASTIRNGNKSSTHNLLSLGKHSDLLKEHSDVEAYLKERLNEAMESGI | -0.0843
14 | HMQKPDIEVDFAEGDMVVVTGGAWKDTAGVITGINMQKQTVTINVELFGRETPVEISFTEIKKA | -0.117
15 | HMQKVPDAFKAEQVQTLITRLGVSRAELARTLDVSLSTVNKWASGAVEPKGSALVLLKVLWMHGFKAL | -2.85
16 | HMQLDDDQKEELILKLIDSLDTTKKGAPLTELAREAAKSNIGESELEEITTSLLDKGLVYEPTIGKMKR | 0.394
17 | HMQLDLNENEKIIFEILQNNKTMQLSNLKTQTELSNKGWDKAIKSLTKQGLAKVSKIDNELIVEFL | -0.466
18 | HMQLKFTDLRKEILRMIWEGHGPQKAYDLLNKLQQTNPSAKPATVYRALDFLIGNGFIHKVASLNAFVG | -0.59
19 | HMQLKKDTILSYIEEKLIDSYNSNKGFTTQEISVALNMQRTNVSAILNNLVKENKLVKTKGKPVRYFLSG | -0.636
20 | HMQLTPAQHAILAHALEHSDGKIVWFPDNIKGGARKKVLDGLLNRALITTDGTDWFVAAEGYDAMGR | -0.386

Row | Sequence | soluble fraction (log2)
21 | HMQLTVAVLIKNISKGQVISQGFLGFEARPERQIRGAYTNISEVLGRKAKSNIAVGTILKARHLDT | -2.87
22 | HMQNAMQKELIDAFQKAYPDLDITKIELVYGTYYEVEAMNSTTEFTYRYDQNSKTFILAEQDNADP | -0.203
23 | HMQNELAEARSQLAERKNIDQAKLILMKKRNISEPEAYKLLRSHAMQTNRRVAEVAESIITAESLLG | -0.0692
24 | HMQNGNLVDVYLNWRGKYYAIKMFFPNSKMPRRSDVQDQIVKVYPDARVQSFQVSKYVPGQPFL | -2.62
25 | HMQNLSELAYVNLRDALMQGQMKPGEELPLRPISRSFGISATPMREALLRLVTESALEMDSRGRISVP | -0.347
26 | HMQNPYDTLGVSRDSTDAEIKKAYRKLAMEHHPDKGGDSQRFAEINNAYDNIKDMSSRQNFENDPSNFQ | 0.266
27 | HMQNVFARKNLTSVSVDKLGEEEILLFKQSFESKNLTSSEALRDLSKKGMSEAELRKLKVRLTQL | -0.287
28 | HMQNWFADPKFEMFEDYGDAQSFYDTETKNIYVVMAEYGQKGSNTIQEITPDSEEYIPNYEKYKEYMENK | 0.214
29 | HMQNYLEFIGNELKALTSIPSPSGYTKDVAAYLMKTLSDMGYEPQLSNKGNVFVTIGGEGNPLVLAAHVD | 0.0285
30 | HMQNYLEVLRLHELGMGQRKIAQQVHTSRDTIRKIIAIAENQGLNYSNLIGKTDNELSKVFG | -0.622
31 | HMQPAGEGAILRYLSSGAVKGIGPVMAREIVRRFGTDTFRVMEQEPEKLLKVKGITEQRLQTIMESYQD | -0.198
32 | HMQPDPAFVAWVDANPWYKENRTLRALVHDYAEEVKRQEPALIGTAFLDRVKQLVQSEHPELFD | -0.234
33 | HMQPETIEDATNLYLEAARATLQLIEQNNVIARDVKRLLEHLDNDMARIETLLAEMLSRRDHWLRHIH | 0.148
34 | HMQPIQPNQAKYLDGLSSKYKGKGNHSQAAQLTALRDALNAGDHAKAREIYDKLDYEPQAEAAH | 0.364
35 | HMQPNVTRERILAAAMTVFAQKGWQKTSLDEVAAAAGMTKGAIYWHFRNKNDLFFALLDARLQRD | -2.16
36 | HMQQAVTMQKPGRLLRNADGNGGAVRDLDVGMMLYPTGNRSELMWEVDDELGNRGWVNSTLFGLS | 0.013
37 | HMQQDGSSSLGENMLNQELQARGVVPSEIPQEVWERVIQEAGKKSKREIYADIGLGRSLAAGFAQRLAA | 0.145
38 | HMQQDVLKLKSGGNYKGEYINIESAYVLFKPEGGNATQRIKVNEIQMLKLADGTEVIFGGRVK | -0.237
39 | HMQQEPNFYIVDGNTNQIVDRYYAPDSNVAHQYLGQWRQQHDPQETGNYRYGRLSSETEERYRNLAA | 0.22
